Measured values published in patent US9193963B2, “Mutant endoglucanase” (Toray Industries, Inc., priority 2011, dated 2015).

B1: EGAc Mutant: mutant EGAc, SEQ ID NO: 32; residue corresponding to 273rd tryptophan substituted with alanine (protein)
chain: MPRALRRVPGSRVMLRVGVVVAVLALVAALANLAVPRPARAAGGGYWHTSGREILDANNVPVRIAGINWFGFETCNYVVHGLWSRDYRSMLDQIKSLGYNTIRLPYSDDILKPGTMPNSINFYQMNQDLQGLTSLQVMDKIVAYAGQIGLRIILDRHRPDCSGQSALWYTSSVSEATWISDLQALAQRYKGNPTVVGFDLHNEPHDPACWGCGDPSIDWRLAAERAGNAVLSVNPNLLIFVEGVQSYNGDSYWAGGNLQGAGQYPVVLNVPNRLVYSAHDYATSVYPQTWFSDPTFPNNMPGIWNKNWGYLFNQNIAPVWLGEFGTTLQSTTDQTWLKTLVQYLRPTAQYGADSFQWTFWSWNPDSGDTGGILKDDWQTVDTVKDGYLAPIKSSIFDPVGASASPSSQPSPSVSPSPSPSPSASRTPTPTPTPTASPTPTLTPTATPTPTASPTPSPTAASGARCTASYQVNSDWGNGFTVTVAVTNSGSVATKTWTVSWTFGGNQTITNSWNAAVTQNGQSVTARNMSYNNVIQPGQNTTFGFQASYTGSNAAPTVACAAS
modifications: Acidthermus cellulolyticus EGAc W254A
notes: residue corresponding to 273rd tryptophan substituted with alanine
B2: EGSt Wild-type: Spirochaeta thermophile-derived endoglucanase, SEQ ID NO: 37, parent endoglucanase (protein)
chain: MKYLRTILLSLLVFLITLGCSLPFLDVSGKGGTAARATELRVGRLTGVNWFGFETGNHVVHGLWARDYKSMLKQIADLGFNCIRIPWANEMIDKAPNSIQINPSGVDPYTGEQGLNLDLEGLSSLEVLDKIIEEANRLGLYVILDNHSRAADGYMNETLWYTDEYPEERWISDWVMMVRRYKNYPNVIGADLNNEPHGNTGTGMKPPATWGYTLPEYGDTDWKAAAERCAAAILAENPNLYIIVEGVEEYQGDTYWWGGNLKGVRDYPITSIPAENLIYSPHEYGPEVYNQSWFSDPTFPDNMPAIWDEHFWFIYKENIAPVLIGEFGIKEASAADPSSVAYQWFTTFMAYVGDKASWTFWSWNPNSGDTGGILKDDWVTVNEAKYNLIRPYLANPPQPTATPTPTGTPTPTPTPTPTPTPTPTPTPTPTPTATPTPTPTPTPTPTPTPTATPTPSGEYTEIALPFSYDGAGEYYWKTDQFSTDPNDWSRYVNSWNLDLLEINGTDYTNVWVAQHQIPAASDGYWYIHYKSGVSWGHVEIK
modifications: Spirochaeta thermophila EGSt
B3: EGSt Mutant: mutant EGSt, SEQ ID NO: 38; residue corresponding to 273rd tryptophan substituted with alanine (protein)
chain: MKYLRTILLSLLVFLITLGCSLPFLDVSGKGGTAARATELRVGRLTGVNWFGFETGNHVVHGLWARDYKSMLKQIADLGFNCIRIPWANEMIDKAPNSIQINPSGVDPYTGEQGLNLDLEGLSSLEVLDKIIEEANRLGLYVILDNHSRAADGYMNETLWYTDEYPEERWISDWVMMVRRYKNYPNVIGADLNNEPHGNTGTGMKPPATWGYTLPEYGDTDWKAAAERCAAAILAENPNLYIIVEGVEEYQGDTYWAGGNLKGVRDYPITSIPAENLIYSPHEYGPEVYNQSWFSDPTFPDNMPAIWDEHFWFIYKENIAPVLIGEFGIKEASAADPSSVAYQWFTTFMAYVGDKASWTFWSWNPNSGDTGGILKDDWVTVNEAKYNLIRPYLANPPQPTATPTPTGTPTPTPTPTPTPTPTPTPTPTPTPTATPTPTPTPTPTPTPTPTATPTPSGEYTEIALPFSYDGAGEYYWKTDQFSTDPNDWSRYVNSWNLDLLEINGTDYTNVWVAQHQIPAASDGYWYIHYKSGVSWGHVEIK
modifications: Spirochaeta thermophila EGSt W257A
notes: as for B1

How the values were obtained:
[1] = Activity to degrade phosphoric acid swollen cellulose; format: biochemical; settings: 1% phosphoric acid swollen cellulose, pH 5.2, enzyme 0.5 μM, 1 hour, 50° C.; glucose generated by each parent endoglucanase = 100%
Description: The term “identity” refers to the percentage of amino acid residues identical to and amino acid residues analogous to the other amino acid residues in all the amino acid residues overlapped when an optimum alignment is performed by introducing gaps or no gaps into two amino acid sequences and then aligning the two amino acid sequences. Such an identity can be found using a method known by persons skilled in the art, sequence analysis software, and the like (a known algorithm such as BLAST or FASTA). The term “endoglucanase activity” is as defined above and can be determined by adding an enzyme solution to a substrate solution of phosphoric acid swollen cellulose that has been dissolved in 50 mM acetic acid-sodium acetate buffer (pH 5.2) or the like, performing 1 hour of reaction at 30° C. to 85° C., stopping the reaction by changing the pH if necessary, and then determining the concentration of glucose in the reaction solution using a glucose determination kit, for example.
The mutants obtained in Comparative Example 1 were compared in terms of activity by a technique similar to that in Example 3. The concentration (g/L) of glucose generated by each parent endoglucanase under the above reaction conditions was determined to be 100%.

[2] = Inhibition experiment with vanillin: degradation of phosphoric acid swollen cellulose; format: biochemical; settings: enzyme 0.5 μM, 1 hour, 50° C., parent at 0 mM = 100%
Description: (§6) This substance was diluted using buffer and water to obtain a 2 wt % mixture so that the final concentration of sodium acetate was 50 mM (pH 5.2). This was designated as phosphoric acid swollen cellulose and used for the following examples.
The activity of the wild-type and the mutant endoglucanases to degrade phosphoric acid swollen cellulose in the presence of vanillin was measured. 1% phosphoric acid swollen cellulose/50 mM acetate buffer (pH 5.2) was used as a substrate. Vanillin (Sigma Aldrich) was added at final concentrations of 0, 5, 10, and 15 mM. The enzymes prepared in Reference Example 1 and Example 2 were added at a final concentration of 0.5 μM, followed by 1 hour of enzymatic reaction at 50° C.

[3] = Inhibition experiment with ferulic acid: degradation of phosphoric acid swollen cellulose; format: biochemical; settings: enzyme 0.5 μM, 1 hour, 50° C., parent at 0 mM = 100%
Description: as §6
The activity of the wild-type and the mutant endoglucanases to degrade phosphoric acid swollen cellulose was measured in the presence of ferulic acid. 1% phosphoric acid swollen cellulose/50 mM acetate buffer (pH 5.2) was used as a substrate. Ferulic acid (Sigma Aldrich) was added at final concentrations of 0, 5, 10, and 15 mM. The enzymes prepared in Reference Example 1 and Example 2 were each added at a final concentration of 0.5 μM, followed by 1 hour of enzymatic reaction at 50° C.

[4] = Saccharification of lignocellulose 1 with Celluclast and endoglucanase; format: biochemical, Rice straw; settings: 5 wt % Lignocellulose 1, pH 5.2, 50° C., 24 hours; 1.0 mg/mL cellulase + 0.1 mg/mL endoglucanase
Description: (§1) Rice straw was used as cellulose. The cellulose was added to a small reactor (Taiatsu Techno Corporation, TVS-N2 (30 ml)), and then cooled with liquid nitrogen. An ammonia gas was fed to the reactor, thereby completely immersing the sample in the liquid ammonia. The reactor was closed using its lid, and then left to stand at room temperature for 15 minutes. Subsequently, treatment was performed for 1 hour in an oil bath at 150° C. After treatment, the reactor was removed from the oil bath, an ammonia gas leak was immediately performed within a draft chamber. The reactor was vacuumed using a vacuum pump to 10 Pa for drying. The resultant was used as lignocellulose 1 in the following examples.
(§2) The changes in the amount of glucose generated when the enzyme composition had been caused to act on lignocellulose substrates were compared. The substrates were prepared by suspending 5 wt % lignocelluloses (1 to 3) (prepared in Reference Example 3) in 50 mM acetate buffer (pH5.2). Reactions were performed at 50° C. for 24 hours. The concentrations of the generated glucose were measured after adequate sampling. As a filamentous bacterium-derived cellulase mixture, commercially available Trichoderma reesei-derived cellulase (Celluclast, Sigma) was used. As endoglucanases, the mutant endoglucanases prepared in Example 2 and the wild-type endoglucanases prepared in Reference Example 1 were separately used. The following quantities of enzymes were added: 1.0 mg/mL cellulase, and 0.1 mg/mL endoglucanase (in an amount one tenth that of the cellulase).

[5] = Saccharification of lignocellulose 2 with Celluclast and endoglucanase; format: biochemical, Rice straw; settings: 5 wt % Lignocellulose 2, pH 5.2, 50° C., 24 hours; 1.0 mg/mL cellulase + 0.1 mg/mL endoglucanase
Description: (§3) Rice straw was used as cellulose. Cellulose was immersed in a 1% aqueous sulfuric acid solution, and then autoclaved for 30 minutes at 150° C. (Nitto Koatsu Co. Ltd.). After treatment, the resultant was subjected to solid-liquid separation into an aqueous sulfuric acid solution (hereinafter, referred to as “dilute-sulfuric-acid-treated solution”) and cellulose treated with sulfuric acid. Next, the cellulose treated with sulfuric acid was mixed and agitated with the dilute-sulfuric-acid-treated solution so that the solid content concentration was 10 wt %. Then the mixture was adjusted to around pH 5 using sodium hydroxide. The resultant was used as lignocellulose 2 for the following examples.
as §2

[6] = Saccharification of lignocellulose 3 with Celluclast and endoglucanase; format: biochemical, Rice straw; settings: 5 wt % Lignocellulose 3, pH 5.2, 50° C., 24 hours; 1.0 mg/mL cellulase + 0.1 mg/mL endoglucanase
Description: (§4) Rice straw was used as cellulose. The cellulose was immersed in water, and then autoclaved with agitation at 180° C. for 20 minutes (Nitto Koatsu Co. Ltd.). Pressure at this time was 10 MPa. After treatment, a solution component (hereinafter, referred to as “hydrothermally treated solution”) and the treated biomass component were subjected to solid-liquid separation by centrifugation (3000 G). The thus treated biomass component was used as lignocellulose 3 for the following examples.
as §2

[7] = Saccharification of lignocellulose 1 with Trichoderma reesei culture solution and endoglucanase; format: biochemical, Rice straw; settings: Lignocellulose 1, 24 hours; cellulase 1.0 mg/mL + endoglucanase 0.1 mg/mL + β-glucosidase (Novozyme 188) 0.01 mg/mL
Description: as §1, §2
(§5) Lignocelluloses (1-3) prepared in Reference Example 3 were used as substrates. The Trichoderma reesei culture solution prepared in Reference Example 4 was used as a filamentous bacterium-derived cellulase mixture. Lignocelluloses (1-3) were hydrolyzed in a manner similar to that in Example 7, except for the quantities of the enzymes added: cellulase (1.0 mg/mL); endoglucanase (0.1 mg/mL (in an amount one tenth that of the cellulase); and β-glucosidase (Novozyme 188) (0.01 mg/mL (in an amount one hundredth that of the cellulase).

[8] = Saccharification of lignocellulose 2 with Trichoderma reesei culture solution and endoglucanase; format: biochemical, Rice straw; settings: Lignocellulose 2, 24 hours; cellulase 1.0 mg/mL + endoglucanase 0.1 mg/mL + β-glucosidase (Novozyme 188) 0.01 mg/mL
Description: as §3, §2, §5

[9] = Saccharification of lignocellulose 3 with Trichoderma reesei culture solution and endoglucanase; format: biochemical, Rice straw; settings: Lignocellulose 3, 24 hours; cellulase 1.0 mg/mL + endoglucanase 0.1 mg/mL + β-glucosidase (Novozyme 188) 0.01 mg/mL
Description: as §4, §2, §5

Molecule	Relative activity [1]	Relative activity to degrade phosphoric acid swollen cellulose ([2]; vanillin 0 mM)	Relative activity to degrade phosphoric acid swollen cellulose ([2]; vanillin 5 mM)	Relative activity to degrade phosphoric acid swollen cellulose ([2]; vanillin 10 mM)	Relative activity to degrade phosphoric acid swollen cellulose ([2]; vanillin 15 mM)	Relative activity to degrade phosphoric acid swollen cellulose ([3]; ferulic acid 0 mM)	Relative activity to degrade phosphoric acid swollen cellulose ([3]; ferulic acid 5 mM)	Relative activity to degrade phosphoric acid swollen cellulose ([3]; ferulic acid 10 mM)	Relative activity to degrade phosphoric acid swollen cellulose ([3]; ferulic acid 15 mM)	Concentration of glucose generated, Celluclast + Mutant [4]	Concentration of glucose generated, Celluclast + Mutant [5]	Concentration of glucose generated, Celluclast + Mutant [6]	Concentration of glucose generated, Culture solution + Mutant [7]	Concentration of glucose generated, Culture solution + Mutant [8]	Concentration of glucose generated, Culture solution + Mutant [9]	further results
B1	100%	100%	100%	95%	95%	100%	100%	100%	95%	16 g/L	14 g/L	14 g/L	13 g/L	11 g/L	11 g/L	
B2	100%	100%	50%	50%	45%	100%	50%	45%	40%							Concentration of glucose generated, Celluclast + Wild-type [4]: 11 g/L; Concentration of glucose generated, Celluclast + Wild-type [5]: 12 g/L; Concentration of glucose generated, Celluclast + Wild-type [6]: 11 g/L; Concentration of glucose generated, Culture solution + Wild-type [7]: 8 g/L; Concentration of glucose generated, Culture solution + Wild-type [8]: 9 g/L; Concentration of glucose generated, Culture solution + Wild-type [9]: 8 g/L
B3	100%	100%	100%	100%	90%	100%	100%	100%	90%	14 g/L	15 g/L	14 g/L	11 g/L	12 g/L	11 g/L	
